# From patent US8080523
# Where two headings read alike, the source gives them in different places.
# What was measured:
# Kv1.2 [1] = assay: patch-clamp, block of channel current
# Kv1.6 [2] = assay: patch-clamp, block of channel current
# Kv3.2 [3] = assay: patch-clamp, block of channel current
# Kv1.2 [4] = assay: patch-clamp, ratio of Kd values; reference margatoxin on Kv1.3
# Kv1.6 [5] = assay: as above
# Kv3.2 [6] = assay: as above
# [7] = target: Kv1.1 (Mus musculus (Mouse)) (UniProt P16388); assay: patch-clamp, ratio of Kd values; reference ShK(L6) on Kv1.3
# Kv1.3 (cloned) [8] = target: Kv1.3 (cloned) (UniProt P16390)
# Kv1.1 = Kv1.1 (UniProt P16388)
# Kv1.3 (cloned) [9] = target: Kv1.3 (cloned) (UniProt P16390); remark: listed apart in the source
# Kv1.6, sequence (P17658 whole entry): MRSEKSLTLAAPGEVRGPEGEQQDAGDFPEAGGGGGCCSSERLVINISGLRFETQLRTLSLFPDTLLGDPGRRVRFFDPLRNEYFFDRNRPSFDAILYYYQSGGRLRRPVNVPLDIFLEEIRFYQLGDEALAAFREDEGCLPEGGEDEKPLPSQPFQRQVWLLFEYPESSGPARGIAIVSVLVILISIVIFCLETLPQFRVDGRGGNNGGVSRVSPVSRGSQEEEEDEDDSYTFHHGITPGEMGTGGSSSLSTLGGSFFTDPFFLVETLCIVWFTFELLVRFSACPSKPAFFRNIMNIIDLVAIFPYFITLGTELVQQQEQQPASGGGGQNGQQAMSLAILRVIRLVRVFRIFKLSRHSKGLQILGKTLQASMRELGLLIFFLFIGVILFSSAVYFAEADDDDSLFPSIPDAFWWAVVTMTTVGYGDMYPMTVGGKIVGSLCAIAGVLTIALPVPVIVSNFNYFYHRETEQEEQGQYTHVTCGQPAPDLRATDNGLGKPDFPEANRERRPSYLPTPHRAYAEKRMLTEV
# Kv3.2, sequence (P22462 whole entry): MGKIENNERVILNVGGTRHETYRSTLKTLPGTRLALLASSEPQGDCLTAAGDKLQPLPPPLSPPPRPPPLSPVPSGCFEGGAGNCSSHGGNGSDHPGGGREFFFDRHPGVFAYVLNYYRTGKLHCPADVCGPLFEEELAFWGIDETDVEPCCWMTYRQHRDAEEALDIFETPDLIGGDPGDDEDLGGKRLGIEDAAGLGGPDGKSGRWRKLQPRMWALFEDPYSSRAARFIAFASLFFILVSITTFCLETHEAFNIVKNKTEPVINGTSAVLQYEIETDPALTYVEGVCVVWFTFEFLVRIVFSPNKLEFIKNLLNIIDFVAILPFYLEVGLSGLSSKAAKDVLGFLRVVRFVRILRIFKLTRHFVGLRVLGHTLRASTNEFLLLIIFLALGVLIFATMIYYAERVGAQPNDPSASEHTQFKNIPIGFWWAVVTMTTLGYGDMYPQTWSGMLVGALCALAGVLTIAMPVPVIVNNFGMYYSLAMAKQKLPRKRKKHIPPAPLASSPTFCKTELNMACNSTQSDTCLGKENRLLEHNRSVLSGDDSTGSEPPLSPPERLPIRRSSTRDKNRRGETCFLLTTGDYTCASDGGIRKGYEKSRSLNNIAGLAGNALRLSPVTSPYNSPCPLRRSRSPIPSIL
# Kv1.2, sequence (P63142 whole entry): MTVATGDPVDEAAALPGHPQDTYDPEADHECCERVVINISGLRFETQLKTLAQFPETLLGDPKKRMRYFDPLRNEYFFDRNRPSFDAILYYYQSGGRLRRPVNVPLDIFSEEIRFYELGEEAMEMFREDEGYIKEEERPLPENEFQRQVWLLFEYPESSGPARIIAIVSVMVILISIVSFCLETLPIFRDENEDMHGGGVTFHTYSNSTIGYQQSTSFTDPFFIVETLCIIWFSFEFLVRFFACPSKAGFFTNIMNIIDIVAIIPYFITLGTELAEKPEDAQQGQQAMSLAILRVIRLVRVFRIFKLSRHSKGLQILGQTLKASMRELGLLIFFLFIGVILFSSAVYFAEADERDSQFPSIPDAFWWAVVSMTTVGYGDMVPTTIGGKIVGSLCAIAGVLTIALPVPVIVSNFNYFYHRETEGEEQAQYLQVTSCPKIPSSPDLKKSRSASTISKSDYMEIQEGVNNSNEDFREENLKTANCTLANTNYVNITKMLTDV
# Kv1.1 (Mus musculus (Mouse)), sequence (P16388 whole entry): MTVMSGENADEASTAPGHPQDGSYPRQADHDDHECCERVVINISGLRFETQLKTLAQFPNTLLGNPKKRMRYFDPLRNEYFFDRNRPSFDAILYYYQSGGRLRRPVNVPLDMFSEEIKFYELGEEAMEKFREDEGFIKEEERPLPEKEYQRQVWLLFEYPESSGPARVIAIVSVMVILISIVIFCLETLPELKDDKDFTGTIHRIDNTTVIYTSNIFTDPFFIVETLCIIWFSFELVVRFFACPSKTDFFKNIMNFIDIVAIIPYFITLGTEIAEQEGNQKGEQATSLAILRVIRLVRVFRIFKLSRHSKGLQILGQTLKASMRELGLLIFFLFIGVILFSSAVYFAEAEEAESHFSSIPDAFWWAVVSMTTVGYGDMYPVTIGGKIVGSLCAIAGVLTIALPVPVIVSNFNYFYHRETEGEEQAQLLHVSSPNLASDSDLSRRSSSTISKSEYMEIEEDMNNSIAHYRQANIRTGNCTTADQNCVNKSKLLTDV
# Kv1.1, sequence (P16388 whole entry): as above
substance,measurement,setting,value
Margatoxin (from UniProt P40755 1-39) (peptide),Kd,Kv1.2 [1],0.52 nM
same,Kd,Kv1.6 [2],> 100 nM
same,Kd,Kv3.2 [3],> 100 nM
same,fold selectivity for Kv1.3 over this channel,Kv1.2 [4],5 fold
same,fold selectivity for Kv1.3 over this channel,Kv1.6 [5],> 1000 fold
same,fold selectivity for Kv1.3 over this channel,Kv3.2 [6],> 1000 fold
ShK(L6) (peptide),fold selectivity for Kv1.3 over this channel,[7],11 fold
ShK toxin (peptide),Kd,Kv1.2 [1],10 nM
same,Kd,Kv1.6 [2],0.2 nM
same,Kd,Kv3.2 [3],5 nM
ShK(L6),Kd,Kv1.3 (cloned) [8],0.01 nM
ShK-F6CA,Kd,Kv1.1,4 nM
ShK(D5),Kd,Kv1.3 (cloned) [9],1.1 nM
